Experimental data as given in the supplement of paper PMC9112550, “Optimization of the antimicrobial peptide Bac7 by deep mutational scanning” (BMC Biology, 2022).

Each sequence was assayed on Escherichia coli TOP10 (assay: shrunken log2 fold change of peptide-encoding DNA abundance (4.5 h post-induction vs induction); higher = less antimicrobial activity (less host growth inhibition)). Conditions: time post-induction: 4.5 h; library: site-saturation at positions 5, 18, 19, 20.
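Also: peptides expressed intracellularly from a pBAD plasmid library in pooled LB shake-flask culture, induced with 0.3% L-arabinose, DNA abundance read by NGS, three biological replicates, DESeq2 with apeglm shrinkage.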

Sequence | shrunken log2 fold change
RRIRKRPPRLPRPRPRPNHFPRP | -2.08
RRIRKRPPRLPRPRPRPNHNPRP | -0.382
RRIRKRPPRLPRPRPRPNIYPRP | -0.275
RRIRKRPPRLPRPRPRPNKCPRP | -0.106
RRIRKRPPRLPRPRPRPNKLPRP | -0.0293
RRIRKRPPRLPRPRPRPNMNPRP | 0.394
RRIRKRPPRLPRPRPRPNMRPRP | 0.334
RRIRKRPPRLPRPRPRPNNCPRP | -0.256
RRIRKRPPRLPRPRPRPNNEPRP | 0.0823
RRIRKRPPRLPRPRPRPNNRPRP | 0.0938
RRIRKRPPRLPRPRPRPNNTPRP | -0.243
RRIRKRPPRLPRPRPRPNNYPRP | -0.259
RRIRKRPPRLPRPRPRPNPYPRP | -0.384
RRIRKRPPRLPRPRPRPNQSPRP | 0.341
RRIRKRPPRLPRPRPRPNRNPRP | -0.234
RRIRKRPPRLPRPRPRPNTGPRP | 0.382
RRIRKRPPRLPRPRPRPNTVPRP | 0.126
RRIRKRPPRLPRPRPRPNVDPRP | 0.17
RRIRKRPPRLPRPRPRPNYFPRP | -0.303
RRIRKRPPRLPRPRPRPPAAPRP | 0.932
RRIRKRPPRLPRPRPRPPADPRP | 0.563
RRIRKRPPRLPRPRPRPPDHPRP | 0.973
RRIRKRPPRLPRPRPRPPGDPRP | 0.905
RRIRKRPPRLPRPRPRPPHAPRP | 0.728
RRIRKRPPRLPRPRPRPPHQPRP | 0.61

Sequence | shrunken log2 fold change
RRIRKRPPRLPRPRPRPPHVPRP | 0.498
RRIRKRPPRLPRPRPRPPIAPRP | 0.464
RRIRKRPPRLPRPRPRPPIHPRP | 0.327
RRIRKRPPRLPRPRPRPPKGPRP | 0.333
RRIRKRPPRLPRPRPRPPKHPRP | 0.723
RRIRKRPPRLPRPRPRPPKKPRP | 0.0439
RRIRKRPPRLPRPRPRPPLTPRP | 0.542
RRIRKRPPRLPRPRPRPPMIPRP | -0.0795
RRIRKRPPRLPRPRPRPPMMPRP | 0.587
RRIRKRPPRLPRPRPRPPNWPRP | 0.593
RRIRKRPPRLPRPRPRPPPEPRP | 1.32
RRIRKRPPRLPRPRPRPPQPPRP | 0.856
RRIRKRPPRLPRPRPRPPQYPRP | 0.277
RRIRKRPPRLPRPRPRPPRGPRP | 1.13
RRIRKRPPRLPRPRPRPPRLPRP | 0.678
RRIRKRPPRLPRPRPRPPSKPRP | 0.541
RRIRKRPPRLPRPRPRPPTMPRP | 0.412
RRIRKRPPRLPRPRPRPPVAPRP | 0.974
RRIRKRPPRLPRPRPRPPVCPRP | 0.336
RRIRKRPPRLPRPRPRPPVSPRP | 0.0866
RRIRKRPPRLPRPRPRPPWMPRP | 0.48
RRIRKRPPRLPRPRPRPQAQPRP | 0.0703
RRIRKRPPRLPRPRPRPQCDPRP | 0.279
RRIRKRPPRLPRPRPRPQDGPRP | 0.013
RRIRKRPPRLPRPRPRPQFLPRP | 0.0482

Sequence | shrunken log2 fold change
RRIRKRPPRLPRPRPRPQFRPRP | 0.0319
RRIRKRPPRLPRPRPRPQHKPRP | 0.196
RRIRKRPPRLPRPRPRPQHPPRP | 0.105
RRIRKRPPRLPRPRPRPQIDPRP | 0.00239
RRIRKRPPRLPRPRPRPQKHPRP | 0.224
RRIRKRPPRLPRPRPRPQLQPRP | 0.199
RRIRKRPPRLPRPRPRPQPTPRP | 0.5
RRIRKRPPRLPRPRPRPQQNPRP | 0.157
RRIRKRPPRLPRPRPRPQRAPRP | 0.944
RRIRKRPPRLPRPRPRPQREPRP | 0.749
RRIRKRPPRLPRPRPRPQRHPRP | 1.73
RRIRKRPPRLPRPRPRPQRMPRP | 0.408
RRIRKRPPRLPRPRPRPQRTPRP | 0.419
RRIRKRPPRLPRPRPRPQTWPRP | 0.134
RRIRKRPPRLPRPRPRPQVQPRP | 0.131
RRIRKRPPRLPRPRPRPQVVPRP | -0.0176
RRIRKRPPRLPRPRPRPQWIPRP | 0.00082
RRIRKRPPRLPRPRPRPQYEPRP | 0.0265
RRIRKRPPRLPRPRPRPRCKPRP | 0.00437
RRIRKRPPRLPRPRPRPRCSPRP | 0.305
RRIRKRPPRLPRPRPRPRECPRP | -0.0199
RRIRKRPPRLPRPRPRPRFNPRP | 0.0969
RRIRKRPPRLPRPRPRPRGDPRP | 0.396
RRIRKRPPRLPRPRPRPRGIPRP | 0.0697
RRIRKRPPRLPRPRPRPRGVPRP | 0.782

Sequence | shrunken log2 fold change
RRIRKRPPRLPRPRPRPRHDPRP | 0.254
RRIRKRPPRLPRPRPRPRIPPRP | 0.11
RRIRKRPPRLPRPRPRPRIWPRP | 0.434
RRIRKRPPRLPRPRPRPRKDPRP | 0.222
RRIRKRPPRLPRPRPRPRLAPRP | 0.772
RRIRKRPPRLPRPRPRPRLKPRP | 0.365
RRIRKRPPRLPRPRPRPRLMPRP | 0.989
RRIRKRPPRLPRPRPRPRLQPRP | 0.475
RRIRKRPPRLPRPRPRPRLTPRP | 0.501
RRIRKRPPRLPRPRPRPRMDPRP | 0.236
RRIRKRPPRLPRPRPRPRNDPRP | 0.352
RRIRKRPPRLPRPRPRPRNGPRP | 0.157
RRIRKRPPRLPRPRPRPRNKPRP | -0.08
RRIRKRPPRLPRPRPRPRPVPRP | 0.732
RRIRKRPPRLPRPRPRPRQDPRP | -0.0954
RRIRKRPPRLPRPRPRPRRHPRP | 0.523
RRIRKRPPRLPRPRPRPRSWPRP | 0.833
RRIRKRPPRLPRPRPRPRTTPRP | 0.792
RRIRKRPPRLPRPRPRPRWKPRP | 0.702
RRIRKRPPRLPRPRPRPRWQPRP | 0.189
RRIRKRPPRLPRPRPRPRWRPRP | 0.658
RRIRKRPPRLPRPRPRPSCAPRP | 0.523
RRIRKRPPRLPRPRPRPSCMPRP | -0.0405
RRIRKRPPRLPRPRPRPSCRPRP | 0.0107
RRIRKRPPRLPRPRPRPSCTPRP | 0.0868

Sequence | shrunken log2 fold change
RRIRKRPPRLPRPRPRPSEAPRP | 0.401
RRIRKRPPRLPRPRPRPSEDPRP | -0.0464
RRIRKRPPRLPRPRPRPSERPRP | 0.317
RRIRKRPPRLPRPRPRPSFYPRP | -0.391
RRIRKRPPRLPRPRPRPSGNPRP | 0.267
RRIRKRPPRLPRPRPRPSIQPRP | -0.149
RRIRKRPPRLPRPRPRPSNMPRP | -0.327
RRIRKRPPRLPRPRPRPSNYPRP | -0.312
RRIRKRPPRLPRPRPRPSQCPRP | 0.127
RRIRKRPPRLPRPRPRPSQRPRP | 0.231
RRIRKRPPRLPRPRPRPSRFPRP | 1.06
RRIRKRPPRLPRPRPRPSTHPRP | -0.17
RRIRKRPPRLPRPRPRPSVRPRP | 0.528
RRIRKRPPRLPRPRPRPSWDPRP | -0.164
RRIRKRPPRLPRPRPRPSWHPRP | -0.0776
RRIRKRPPRLPRPRPRPSWMPRP | 0.93
RRIRKRPPRLPRPRPRPSWNPRP | -0.15
RRIRKRPPRLPRPRPRPSWPPRP | 0.321
RRIRKRPPRLPRPRPRPSWSPRP | -0.075
RRIRKRPPRLPRPRPRPSYGPRP | -0.141
RRIRKRPPRLPRPRPRPSYKPRP | -0.692
RRIRKRPPRLPRPRPRPSYRPRP | 0.0249
RRIRKRPPRLPRPRPRPSYTPRP | -0.0235
RRIRKRPPRLPRPRPRPTCEPRP | 0.793
RRIRKRPPRLPRPRPRPTCGPRP | 0.561

Sequence | shrunken log2 fold change
RRIRKRPPRLPRPRPRPTCYPRP | 0.0572
RRIRKRPPRLPRPRPRPTDCPRP | -0.0167
RRIRKRPPRLPRPRPRPTDFPRP | 0.118
RRIRKRPPRLPRPRPRPTDNPRP | 0.219
RRIRKRPPRLPRPRPRPTDRPRP | 0.209
RRIRKRPPRLPRPRPRPTEFPRP | 0.00591
RRIRKRPPRLPRPRPRPTKFPRP | 0.663
RRIRKRPPRLPRPRPRPTMCPRP | 0.00679
RRIRKRPPRLPRPRPRPTNEPRP | 0.387
RRIRKRPPRLPRPRPRPTPIPRP | 0.639
RRIRKRPPRLPRPRPRPTPPPRP | 1.25
RRIRKRPPRLPRPRPRPTSPPRP | 0.15
RRIRKRPPRLPRPRPRPTSQPRP | 0.149
RRIRKRPPRLPRPRPRPTTIPRP | 0.259
RRIRKRPPRLPRPRPRPTTWPRP | 0.414
RRIRKRPPRLPRPRPRPTWCPRP | 0.263
RRIRKRPPRLPRPRPRPTWRPRP | 1.23
RRIRKRPPRLPRPRPRPTYVPRP | -0.201
RRIRKRPPRLPRPRPRPVADPRP | 0.14
RRIRKRPPRLPRPRPRPVDAPRP | 0.493
RRIRKRPPRLPRPRPRPVDDPRP | 0.508
RRIRKRPPRLPRPRPRPVDSPRP | 0.134
RRIRKRPPRLPRPRPRPVEDPRP | -0.000777
RRIRKRPPRLPRPRPRPVEGPRP | -0.006
RRIRKRPPRLPRPRPRPVERPRP | 0.204
